The series concerns the molecule itself. Nature of the series: cross-linking.

This is an account of results in article PMC2701625 (Biochemistry, 2009).

As usually defined, the stoichiometry N is a count of units in the complex or per binding partner.

B1: GST-hHsp90-N520 (GST tagged human hsp90β truncation, residues 520-724) (domain or fragment)
chain: not shown
Consider B1, for which the “stoichiometry N” value stood at 4.
